Source: publication PMC12565409, “Computational–Experimental Identification of Palindromic Motifs Bound by Bacterial XRE Family Transcriptional Regulators”

Target: Motif_38 protein HW450_07255 (UniProt A0A7G5FC37 1-70)
Assay: EMSA; EMSA: 20 mM Tris-HCl pH 7.5, 250 mM NaCl, 5% glycerol; 2 uL of 1 uM FAM-DNA (labeled:unlabeled strand 1:4) + 2 uL of ~10 uM protein in 20 uL; 37 C, 30 min
Conditions: protein: recombinant; tags: His (pET-28a, Ni column); label: 5'FAM on strand 1; blunt

B1: Mot38-WT (dsDNA)
DNA 1: AATAAATCGGCACAATCGTGCCGATTTTGG
DNA 2: CCAAAATCGGCACGATTGTGCCGATTTATT
binding result: binds
